From patent publication US8114638B2, “Arabinitol dehydrogenase from Neurospora crassa” (The Board of Trustees of the University of Illinois, priority 2007, dated 2012)

Key:
[1] = F59 mutant kinetic analysis, substrate adonitol; type: biochemical; details: 25° C., 50 mM Tris pH 8.0, NAD+ 2 mM
Protocol: (§1) Initial rates were determined using a Varian Cary 100 Bio UV-visible spectrophotometer (Varian) at 25° C. in 50 mM Tris (pH 8.0). […] This is the first reported detection of NADP^+ utilization by LAD, although it is still considered a strongly NAD^+-dependent enzyme. Kinetic measurements with substrate L-arabinitol and cofactor NAD^+ were taken in a 5-by-5 matrix format, with substrate and cofactor concentrations varied from below their Km to 10-fold higher than their Km. The kinetic data were analyzed with a modified version of Cleland's program (Cleland, W. W. (1979) Statistical analysis of enzyme kinetic data, Methods Enzymol 63, 103-138.). Vmax and Km for both L-arabinitol and NAD^+ were obtained by fitting the data to a sequential ordered mechanism with NAD^+ binding first, based on the proposed mechanism for sorbitol dehydrogenase (Lindstad et al. (1992) The kinetic mechanism of sheep liver sorbitol dehydrogenase, Eur J Biochem 210, 641-647.) v=VmaxAB/(KiaKB+KAB+KBA+AB) (EQ. 1)
(§2) Activity assays were run for three mutants of N. crassa LAD (F59A, F59S, and F59Y) to study the effect of mutation of this active site, putative substrate binding residue homologous to tyrosine in other SDHs. […]

[2] = Kinetic parameters of LAD from various source organisms; type: biochemical; details: for Specific activity: purified N. crassa LAD
Protocol: Initial rates were determined using a Varian Cary 100 Bio UV-visible spectrophotometer (Varian) at 25° C. in 50 mM Tris (pH 8.0). […] Kinetic measurements with substrate L-arabinitol and cofactor NAD^+ were taken in a 5-by-5 matrix format, with substrate and cofactor concentrations varied from below their Km to 10-fold higher than their Km. The kinetic data were analyzed with a modified version of Cleland's program (Cleland, W. W. (1979) Statistical analysis of enzyme kinetic data, Methods Enzymol 63, 103-138.). Vmax and Km for both L-arabinitol and NAD^+ were obtained by fitting the data to a sequential ordered mechanism with NAD^+ binding first, based on the proposed mechanism for sorbitol dehydrogenase (Lindstad et al. (1992) The kinetic mechanism of sheep liver sorbitol dehydrogenase, Eur J Biochem 210, 641-647.) v=VmaxAB/(KiaKB+KAB+KBA+AB) (EQ. 1)

[3] = Thermal inactivation and storage stability of LAD; type: physicochemical
[4] = pH rate profile of LAD activity; type: biochemical; details: universal buffer, 2 mM NAD+, 200 mM L-arabinitol
Protocol: Activity was measured at pH values between 7.0 and 11.0 under saturating concentrations of NAD+ (2 mM) and L-arabinitol (200 mM) in a universal buffer (50 mM morpholineethanesulfonic acid (MES)/50 mM Tris/50 mM glycine). The pH range for N. crassa LAD activity was large, with >25% of the activity occurring with pH values of 7.0 to 11.0 (FIG. 2C). The pH optimum was around pH 9.5, and >60% of the activity remained in the pH span from 8.0 to 10.5.

[5] = F59 mutant kinetic analysis, substrate L-arabinitol; type: biochemical; details: 25° C., 50 mM Tris pH 8.0, NAD+ 2 mM
Protocol: as §1, §2

[6] = F59 mutant kinetic analysis, substrate xylitol; type: biochemical; details: 25° C., 50 mM Tris pH 8.0, NAD+ 2 mM
Protocol: as §1, §2

[7] = Effect of GST-tag removal on specific activity; type: biochemical; details: 4° C. overnight
Excerpt: N. crassa RNA purification, reverse-transcription PCR, cloning, and N. crassa LAD expression are described in this example. […] The reverse transcription-PCR product was subcloned into pGEX-4T-3 vector (Amersham Biosciences) using EcoRI and NotI restriction sites and was transformed into Escherichia coli BL21(DE3). This construct (pGEX-lad1) encoded N. crassa LAD as an N-terminal glutathione S-transferase (GST)-tagged fusion with a thrombin cleavage site. Cell lysates of isopropyl-β-D-thiogalactopyranoside (IPTG) induced cultures of these cells were prepared, analyzed by SDS-PAGE, and assayed for LAD activities. The construct produced soluble GST-tagged N. crassa LAD at ˜16% of the total soluble cellular proteins (FIG. 1), which was then purified in a single step with a GST-Bind kit (Novagen) according to manufacturer's protocol. […] Protein concentrations were determined by the Bradford method and by using an estimated extinction coefficient (San Diego Supercomputer Center Biology Workbench) of 35.3 mM-1 cm-1 at 280 nm with similar results. The purity of the protein was analyzed by an SDS-PAGE gel stained with Coomassie brilliant blue (FIG. 1). […]
To determine the effect of removal of the GST-tag, the purified LAD was incubated with and without thrombin at 4° C. overnight. […] It was determined that removal of the GST-tag enhanced activity by about 65%. […]

[8] = Temperature dependence of LAD activity; type: biochemical
Protocol: The optimal temperature of activity was determined by assaying LAD activities at temperatures ranging from 12 to 65° C. […] (FIG. 2A). At higher temperatures, the enzyme inactivates rapidly, and at lowered temperatures, the rate increases with temperature according to the Arrhenius equation. Utilizing the Arrhenius equation to fit the data from 12 to 30° C., the energy of activation for L-arabinitol oxidation by N. crassa LAD was determined to be 49 kJ/mol. […] Thermal inactivation of N. crassa LAD was studied by incubating at 50° C. in 50 mM Tris (pH 8.0), with samples removed at various times and assayed for activity in saturating substrate conditions.

Substance: N. crassa LAD: NAD+-dependent L-arabinitol 4-dehydrogenase from Neurospora crassa, 363 residues, SEQ ID NO: 1, recombinantly expressed in E. coli
- kcat (mean ± SD) [1]: 1,080 ± 30 min^−1
- Km ([1]; read-out: Km (mean ± SD)): 35 ± 3 mM
- kcat ([2]; N. crassa LAD): 1,206 min^−1
- Km ([2]; N. crassa LAD, read-out: Km,L-arabinitol): 16 mM
- Km ([2]; N. crassa LAD, read-out: Km,NAD+): 0.174 mM
- specific activity relative to H. jecorina LAD purified from S. cerevisiae heterologous expression ([2]; greater): ~20 fold
- Specific activity [2]: about 31 U/mg
- Specific activity ([2]; listed as N. crassa): 31 U/mg
- stability to repeated freezing (in words) [3]: quite stable and does not markedly lose activity when frozen repeatedly
- activity retained ([3]; 45° C., after 4 hr): ~60%
- storage stability (in words) ([3]; room temperature and 4° C.): retained activity at room temperature for longer than one month and at 4 °C for several months
- activity at pH values of 7.0 to 11.0 [4]: > 25%
- activity remaining in the pH span from 8.0 to 10.5 [4]: > 60%
- pH optimum [4]: ~9.5 pH
- kcat (mean ± SD) [5]: 1,210 ± 30 min^−1
- kcat (mean ± SD) [6]: 16.2 ± 0.667 s⁻¹
- increase of specific activity of thrombin-cleaved LAD over GST-tagged LAD [7]: about 65%
- energy of activation for L-arabinitol oxidation ([8]; Arrhenius fit of data from 12 to 30° C.): 11.7 kcal/mol
- optimum temperature of activity ([8]; assayed from 12 to 65° C., 200 mM L-arabinitol, 2 mM NAD+): 45-55 °C
